Data from patent WO2011147762A2.

Tests used:
[1] = target: ED-B fibronectin antigen protein (recombinant), bound to CNBr activated sepharose 4B (UniProt P02751); assay: ED-B sepharose column, % of total radioactivity bound; Study A; trolox 5 mg/mL; day 3
[2] = target: ED-B fibronectin antigen protein (recombinant), bound to CNBr activated sepharose 4B (UniProt P02751); assay: ED-B sepharose column, % of total radioactivity bound; Study A; inositol 50 mg/mL; day 0
[3] = target: ED-B fibronectin antigen protein (recombinant), bound to CNBr activated sepharose 4B (UniProt P02751); assay: ED-B sepharose column, % of total radioactivity bound; Study A; no-excipient control (saline); day 0
[4] = target: ED-B fibronectin antigen protein (recombinant), bound to CNBr activated sepharose 4B (UniProt P02751); assay: ED-B sepharose column, % of total radioactivity bound; Study A; maltose 5 mg/mL; day 5
[5] = target: ED-B fibronectin antigen protein (recombinant), bound to CNBr activated sepharose 4B (UniProt P02751); assay: ED-B sepharose column, % of total radioactivity bound; Study A; methionine 25 mg/mL; day 7
[6] = target: ED-B fibronectin antigen protein (recombinant), bound to CNBr activated sepharose 4B (UniProt P02751); assay: ED-B sepharose column, % of total radioactivity bound; Study B3; human serum albumin 10 mg/mL; day 0
[7] = target: ED-B fibronectin antigen protein (recombinant), bound to CNBr activated sepharose 4B (UniProt P02751); assay: ED-B sepharose column, % of total radioactivity bound; Study A; maltose 50 mg/mL; day 3
[8] = target: ED-B fibronectin antigen protein (recombinant), bound to CNBr activated sepharose 4B (UniProt P02751); assay: ED-B sepharose column, % of total radioactivity bound; Study A; sodium thiosulfate 5 mg/mL; day 1
[9] = target: ED-B fibronectin antigen protein (recombinant), bound to CNBr activated sepharose 4B (UniProt P02751); assay: ED-B sepharose column, % of total radioactivity bound; Study A; trolox 5 mg/mL; day 5
[10] = target: ED-B fibronectin antigen protein (recombinant), bound to CNBr activated sepharose 4B (UniProt P02751); assay: ED-B sepharose column, % of total radioactivity bound; Study B3; no-excipient control (PBS); day 2
[11] = target: ED-B fibronectin antigen protein (recombinant), bound to CNBr activated sepharose 4B (UniProt P02751); assay: ED-B sepharose column, % of total radioactivity bound; Study A; maltose 25 mg/mL; day 5
[12] = target: ED-B fibronectin antigen protein (recombinant), bound to CNBr activated sepharose 4B (UniProt P02751); assay: ED-B sepharose column, % of total radioactivity bound; Study A; sodium thiosulfate 25 mg/mL; day 5
[13] = target: ED-B fibronectin antigen protein (recombinant), bound to CNBr activated sepharose 4B (UniProt P02751); assay: ED-B sepharose column, % of total radioactivity bound; Study B3; thioglycerol 10 mg/mL; day 0
[14] = target: ED-B fibronectin antigen protein (recombinant), bound to CNBr activated sepharose 4B (UniProt P02751); assay: ED-B sepharose column, % of total radioactivity bound; Study A; maltose 25 mg/mL; day 3
[15] = target: ED-B fibronectin antigen protein (recombinant), bound to CNBr activated sepharose 4B (UniProt P02751); assay: ED-B sepharose column, % of total radioactivity bound; Study A; methionine 10 mg/mL; day 3
[16] = target: ED-B fibronectin antigen protein (recombinant), bound to CNBr activated sepharose 4B (UniProt P02751); assay: ED-B sepharose column, % of total radioactivity bound; Study A; sodium thiosulfate 25 mg/mL; day 0
[17] = target: ED-B fibronectin antigen protein (recombinant), bound to CNBr activated sepharose 4B (UniProt P02751); assay: ED-B sepharose column, % of total radioactivity bound; Study A; methionine 5 mg/mL; day 5
[18] = target: ED-B fibronectin antigen protein (recombinant), bound to CNBr activated sepharose 4B (UniProt P02751); assay: ED-B sepharose column, % of total radioactivity bound; Study B3; ascorbic acid 25 mg/mL; day 7
[19] = target: ED-B fibronectin antigen protein (recombinant), bound to CNBr activated sepharose 4B (UniProt P02751); assay: ED-B sepharose column, % of total radioactivity bound; Study B3; inositol 10 mg/mL; day 0
[20] = target: ED-B fibronectin antigen protein (recombinant), bound to CNBr activated sepharose 4B (UniProt P02751); assay: ED-B sepharose column, % of total radioactivity bound; Study A; inositol 5 mg/mL; day 3
[21] = target: ED-B fibronectin antigen protein (recombinant), bound to CNBr activated sepharose 4B (UniProt P02751); assay: ED-B sepharose column, % of total radioactivity bound; Study A; methionine 5 mg/mL; day 1
[22] = target: ED-B fibronectin antigen protein (recombinant), bound to CNBr activated sepharose 4B (UniProt P02751); assay: ED-B sepharose column, % of total radioactivity bound; Study B3; inositol 10 mg/mL; day 5
[23] = target: ED-B fibronectin antigen protein (recombinant), bound to CNBr activated sepharose 4B (UniProt P02751); assay: ED-B sepharose column, % of total radioactivity bound; Study A; no-excipient control (saline); day 3
[24] = target: ED-B fibronectin antigen protein (recombinant), bound to CNBr activated sepharose 4B (UniProt P02751); assay: ED-B sepharose column, % of total radioactivity bound; Study A; no-excipient control (saline); day 5
[25] = target: ED-B fibronectin antigen protein (recombinant), bound to CNBr activated sepharose 4B (UniProt P02751); assay: ED-B sepharose column, % of total radioactivity bound; Study A; maltose 5 mg/mL; day 0
[26] = target: ED-B fibronectin antigen protein (recombinant), bound to CNBr activated sepharose 4B (UniProt P02751); assay: ED-B sepharose column, % of total radioactivity bound; Study A; sodium thiosulfate 10 mg/mL; day 1
[27] = target: ED-B fibronectin antigen protein (recombinant), bound to CNBr activated sepharose 4B (UniProt P02751); assay: ED-B sepharose column, % of total radioactivity bound; Study A; maltose 5 mg/mL; day 1
[28] = target: ED-B fibronectin antigen protein (recombinant), bound to CNBr activated sepharose 4B (UniProt P02751); assay: ED-B sepharose column, % of total radioactivity bound; Study A; inositol 10 mg/mL; day 1

UniProt P02751, sequence (P02751 1266-1356 limits assumed): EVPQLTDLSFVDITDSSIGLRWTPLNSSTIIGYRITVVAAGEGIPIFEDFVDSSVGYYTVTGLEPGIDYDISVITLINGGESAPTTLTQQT
131I L19-SIP (radioiodinated L19 SIP homodimer), sequence (chain): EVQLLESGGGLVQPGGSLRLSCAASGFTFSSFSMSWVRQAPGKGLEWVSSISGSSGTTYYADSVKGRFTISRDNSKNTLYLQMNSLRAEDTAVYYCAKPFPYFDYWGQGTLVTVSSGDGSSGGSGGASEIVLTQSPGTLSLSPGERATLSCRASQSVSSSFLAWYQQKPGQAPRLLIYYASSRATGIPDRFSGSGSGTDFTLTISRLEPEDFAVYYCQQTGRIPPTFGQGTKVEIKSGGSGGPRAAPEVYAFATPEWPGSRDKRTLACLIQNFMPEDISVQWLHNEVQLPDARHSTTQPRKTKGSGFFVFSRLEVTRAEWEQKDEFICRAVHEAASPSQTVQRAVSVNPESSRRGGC
131I L19-SIP (radioiodinated L19 SIP homodimer), sequence (chain): as above

In the case of “131I L19-SIP (radioiodinated L19 SIP homodimer)”, the Immunoreactivity (%) [1] is reported as 77.6%, the Immunoreactivity (%) [2] is reported as 92.3% and the Immunoreactivity (%) [3] is reported as 94.3%. It also gave an Immunoreactivity (%) [4] of 57%, an Immunoreactivity (%) [5] of 58.9% and an Immunoreactivity (IR) (%) [6] of 76.3%. It also gave an Immunoreactivity (%) [7] of 66.2%, an Immunoreactivity (%) [8] of 94.4% and an Immunoreactivity (%) [9] of 65.8%. It also gave an Immunoreactivity (IR) (%) [10] of 71.3%, an Immunoreactivity (%) [11] of 57.7% and an Immunoreactivity (%) [12] of 87.9%. The Immunoreactivity (IR) (%) [13] was 80.1%, the Immunoreactivity (%) [14] was 66% and the Immunoreactivity (%) [15] was 75.7%. The Immunoreactivity (%) [16] was 96.4%, the Immunoreactivity (%) [17] was 62.6% and the Immunoreactivity (IR) (%) [18] was 55.3%. The Immunoreactivity (IR) (%) [19] was 59.5%, the Immunoreactivity (%) [20] was 64.6% and the Immunoreactivity (%) [21] was 88%. For the same substance, the Immunoreactivity (IR) (%) [22] was 61.2%, the Immunoreactivity (%) [23] was 59.8% and the Immunoreactivity (%) [24] was 47.6%. It also gave an Immunoreactivity (%) [25] of 89.1%, an Immunoreactivity (%) [26] of 94.7% and an Immunoreactivity (%) [27] of 84.4%. For the same substance, the Immunoreactivity (%) [28] was 89.5%.
